Reference: paper PMC2193935 (The Journal of Experimental Medicine, 2002)

Target: the molecule itself
Experiment: SDS-PAGE under non-reducing and reducing conditions with Western blot

B1: Epo-Fc/IHH (Epo-Fc with three inactivating point mutations in the FcRn-binding site of the Fc domain) (Fc fusion)
chain: APPRLICDSRVLERYILEAKEAENVTMGCAEGPRLSENITVPDTKVNFYAWKRMEVEEQAIEVWQGLSLLSEAILQAQALLANSSQPPETLQLHIDKAISGLRSLTSLLRVLGAQKELMSPPDTTPPAPLRTLTVDTFCKLFRVYANFLRGKLKLYTGEVCRRGDRGGSGGSVPRDCGCKPCICTVPEVSSVFIFPPKPKDVLTATLTPKVTCVVVDISKDDPEVQFSWFVDDVEVHTAQTQPREEQFNSTFRSVSELPIMAQDWLNGKEFKCRVNSAAFPAPIEKTISKTKGRPKAPQVYTIPPPKEQMAKDKVSLTCMITDFFPEDITVEWQWNGQPAENYKNTQPIMNTNGSYFVYSKLNVQKSNWEAGNTFTCSVLHEGLHNAHTEKSLSHSPGK
modifications: glycosylated (oligosaccharides cleaved by PNGase F)
- stoichiometry N: 2
